{
  "source": "patent US20150152166A1",
  "key": {"[1]": {"molecular_target": "GPCMV gB (glycoprotein B of guinea pig CMV strain V545/82) (guinea pig cytomegalovirus)", "assay": "cell-based or functional assay"}, "[2]": {"molecular_target": "CMV gp116 epitope AD2 site peptide … (CMV (human cytomegalovirus))", "assay": "kinetic affinity measurement, method not stated; antigen taken as CMV gp116 AD2 peptide"}, "[3]": {"molecular_target": "CMV gp116 epitope AD2 site peptide … (CMV (human cytomegalovirus))", "assay": "kinetic affinity measurement, method not stated; antigen taken as AD2 peptide; same value as r7, table re-sorted by koff"}},
  "data": [
    {"substance": "ITC88 control antibody", "values": [
      {"measurement": "neutralization of GPCMV V545/82 entry into JH4 cells; highest concentration tested without effect", "setting": "[1]", "result": "> 300", "unit": "ng/mL"},
      {"measurement": "Kd", "setting": "[2]", "result": 1.51, "unit": "nM"},
      {"measurement": "koff", "setting": "[2]", "result": 0.00116, "unit": "s⁻¹"},
      {"measurement": "kon", "setting": "[2]", "result": 767000, "unit": "M⁻¹ s⁻¹"},
      {"measurement": "Kd", "setting": "[3]", "result": 1.51, "unit": "nM"},
      {"measurement": "koff", "setting": "[3]", "result": 0.00116, "unit": "s⁻¹"},
      {"measurement": "kon", "setting": "[3]", "result": 767000, "unit": "M⁻¹ s⁻¹"}
    ]}
  ]
}
